# B1: LINE1-full (parent)
# chain: UACGUAGGUGGUUUUCCCCUGAUAGUGCUAAGGGGGCCUGGAAGUUUGGACUGGGCAGAGCUCAACACAGCGUGGCAAAGUGGCUGUGGCUAGACUGCCUCUCUGGAUUCCUCGUCACUCAGCAGGGCAUCUCUGAGAGAAAUGCC
# Variants of: B1
# Test: self-cleavage, relative activity (ratio to wild type); higher = more cleavage; in vitro, sequencing; the parent is a self-cleaving ribozyme
row,Variant,self-cleavage
1,U15A G86A,0.07
2,C17U A65U,0.07
3,C17U A65G,0.18
4,C18A A24G,1.11
5,U15C G32U,1.15
6,C17G U108C,0.81
7,U14G A67U,0.39
8,U15A A141U,1.07
9,U15A A141G,1.35
10,U15A C128U,0.76
11,U15A U85A,0.11
12,U15A U85G,0.28
13,C16U U100A,0.32
14,U15C U132A,1.89
15,U15C U132C,1.47
16,U14G U87C,0.41
17,U15A U100A,0.59
18,U15A U100G,1.07
19,U15C U130C,1.19
20,U15A C118U,0.49
21,U15C A136G,1.52
22,U15C A136C,1.99
23,U15C A79C,1.84
24,U15C A79G,1.18

row,Variant,self-cleavage
1,U15G A78U,2.03
2,U15C U81C,1.43
3,U15C U81A,2.14
4,C17U A69G,0.4
5,U15C A42U,1.38
6,U15C A42G,1.43
7,C18U A30U,0.14
8,U15G A124U,0.58
9,U15A A69G,0.22
10,C17U U47A,1.34
11,U15C G97A,0.06
12,C16A A136G,0.57
13,C18G U115C,1.67
14,U15A G36U,1.31
15,U15A U87C,0.28
16,U15A U87A,0.08
17,C17U A79U,1.1
18,C16U G40U,0.6
19,U15C U119A,1.5
20,U15C G80A,1.82
21,U15C A24U,1.08
22,U15C A24G,1.13
23,U15C A24C,1.84
24,U15A G44A,1.32

row,Variant,self-cleavage
1,C16U A124G,0.58
2,C16A U46C,0.91
3,U15C G27A,1.1
4,U15A G125U,0.89
5,U15A U115A,1.07
6,C17G U91C,0.38
7,U14G U29C,1.6
8,U14G A78G,1.23
9,U15C C63U,0.43
10,U15C G60A,0.04
11,C17U A64G,0.22
12,C18A U81C,1.31
13,U15A G127U,1.87
14,U14G A117U,0.78
15,U14G A117G,0.39
16,U15A U73C,1.06
17,U15C A141G,1.51
18,C16U C38U,1.06
19,U14G U81A,1.91
20,U14G A129U,0.89
21,U14G A129G,0.84
22,U15G A141G,1
23,U15C C90A,0.02
24,U15C U46G,1.15

row,Variant,self-cleavage
1,U15C U46A,1.41
2,U15C A31U,0.95
3,U15C A31G,0.75
4,U15C G135U,1.21
5,U15A A138G,1.45
6,U15A A138U,1.07
7,U15C U87C,0.33
8,U15G U119A,1.01
9,C17U A140U,1.11
10,U14G A24G,0.79
11,C16A U20A,1.64
12,U15A U109C,0.86
13,U15A U109A,0.47
14,U15G U39A,1.19
15,C16U U108C,1.72
16,C18A U96C,0.22
17,U15C A64U,0.66
18,U15C U104G,1.29
19,U15A A136G,1.26
20,C18A U115C,1.85
21,C16U A67G,0.45
22,C17U U26A,0.85
23,U15C A140G,1.59
24,U15C A140C,1.12

row,Variant,self-cleavage
1,C16G C71G,0.42
2,C17U U39C,0.92
3,U15C U112A,1.64
4,U15C U112C,1.37
5,U15C U143C,1.29
6,U15C U47C,1.64
7,U15C U47A,1.42
8,U14G U26A,1.18
9,U15C G48A,1.41
10,U15A U130G,1.09
11,U15A A92G,0.25
12,U15G A138G,0.53
13,C17G A141G,0.47
14,U15A C111U,1.37
15,C17U U143A,0.85
16,C17U U143C,1.03
17,C16U A92U,0.58
18,C16U A92G,0.2
19,C18A A138G,2.26
20,C18A A138U,1.66
21,C16A A142G,0.86
22,U15G U96C,0
23,U15G U96A,0.16
24,C17U A50G,0.59

row,Variant,self-cleavage
1,U15G U108C,1.06
2,U15A A107U,1.06
3,U15C A30G,1.14
4,U15C A92G,0.21
5,U15A U26A,0.5
6,C16U U20A,1.02
7,U15A G55C,0.15
8,U15C A65G,0.1
9,U15C A65C,0.09
10,U15A U45C,0.66
11,C16A A67G,1.02
12,U15A U143C,1.26
13,U15G U47A,1.16
14,U14C U143G,1.93
15,U14C U143C,1.02
16,U14C U143A,0.99
17,U14C U112G,1.75
18,C18A C37G,0.99
19,U15C C111U,1.47
20,C17U A42G,1.36
21,U15G A50C,1.37
22,U15C G53A,1.34
23,U15A A30U,0.85
24,U15A A67G,0.41

row,Variant,self-cleavage
1,U15C G49U,0.94
2,U15C A67U,0.17
3,U15C A67C,0.07
4,U15A U132A,0.45
5,C17U U104C,1.33
6,U15C G41U,0.57
7,C17G U102A,1.38
8,U15A C103A,1.27
9,U15A U46C,0.76
10,U15A U46A,0.71
11,C16U A77U,1.4
12,U15G A31G,0.79
13,U14G A121U,0.95
14,U15C A117G,1.83
15,U15C A117C,2.07
16,C16U A136U,1.29
17,U15C A94G,0.34
18,U15A A64G,0.08
19,U15A A64U,0.29
20,C16U A138G,2.06
21,U15C U102A,0.19
22,U15C U102G,0.8
23,U15A U47G,0
24,U15A U47A,0.76

row,Variant,self-cleavage
1,C17U A138G,1.06
2,C17U A138U,1.29
3,U15C C131A,1.74
4,U15C C131U,2.51
5,U15C C146G,1.45
6,C18A U104A,0.85
7,U15A A79U,1.09
8,C17U U46A,0.72
9,U15A A22G,0.79
10,U15A A22U,1.16
11,U15A A22C,0.85
12,C17U A77U,0.36
13,C16U U91C,0.74
14,U15C C16U,1.02
15,U15A A57U,0.14
16,U15C C120A,1.31
17,C17U U87C,0.23
18,C17U U87A,0.11
19,U15G U46C,0.59
20,C17U G49U,1.69
21,U15A U23C,1.17
22,U15A U23A,0.76
23,U14C U134C,1.34
24,U14C U134A,0.84

row,Variant,self-cleavage
1,C16A U81A,0.75
2,C17A U108C,1.96
3,U15A C28A,1.16
4,U14C U130C,1.5
5,U14C U130A,1.47
6,U15C G88A,0.06
7,C16A U52C,0.69
8,U15C U39C,1.51
9,U15C A43G,1.4
10,U15C A43U,1.09
11,U15A A140U,0.61
12,U15A A140G,1.11
13,U15A A142C,1.71
14,C17U U62C,0.04
15,U15A A121C,0.82
16,U15A A121U,1.35
17,C18A U132A,1.38
18,U14G A50U,1.14
19,U15G U132C,1.81
20,C18A U143C,0.56
21,C18A A42G,1.45
22,U15C C123U,1.72
23,C17U U115C,1.48
24,U15A A124G,0.76

row,Variant,self-cleavage
1,U15A A124U,0.85
2,U15C G126A,1.41
3,C16A U115C,0.41
4,U14G A141G,0.89
5,C18A,1.39
6,C18U,1.17
7,C18G,1.36
8,U15A C110A,1.16
9,U15A U91A,0.77
10,C17A U115C,0.71
11,U14C U119C,1.29
12,U14C U109G,0.65
13,U14C U109A,1.18
14,C18A G58U,0.07
15,U15C U100A,0.62
16,U15C U100G,1.84
17,U15A G35C,1.26
18,U15C U26C,1.33
19,U15C A69G,0.47
20,U15C U96C,0.23
21,U15C U96A,0.1
22,C16U U132C,1.12
23,U15C G21A,1.11
24,U15A U29A,0.38

row,Variant,self-cleavage
1,C16A A121G,0.53
2,C18A A22G,0.7
3,U15C C101G,1.31
4,U15C C51U,1.26
5,U15C U62G,0.15
6,U15C C103U,1.53
7,C16U U96A,0.03
8,C16U U96C,0.11
9,U14G U132C,1.13
10,U15G G126C,1.19
11,U15C C84G,0.21
12,U15A U134A,0.87
13,U15A G49A,0.74
14,U15A C38A,0.77
15,C18G A124G,1.02
16,U14G U39C,1.25
17,U15A A77C,0.7
18,U15A A65U,0.29
19,U15A U20C,1.31
20,U15G A65G,0.1
21,U15A U96A,0.09
22,U15A U96C,0.41
23,U15C U134C,1.43
24,U15C U20A,1.12

row,Variant,self-cleavage
1,U15C U20G,0.52
2,U15C U20C,1.33
3,U15C U85A,0.1
4,U14G U85A,0.28
5,C16U U134C,2.6
6,C16U A117G,0.57
7,U14C U115A,1.45
8,U15C U23G,1.31
9,U15G U104C,0.89
10,C16U U104C,1.03
11,C18A U45A,1.06
12,C17A A22G,2.19
13,U15A U81A,1.56
14,U15A U81C,1.14
15,C16U,1.12
16,C16A,0.96
17,C18G A65U,0.28
18,U15C U115C,1.68
19,U15A C123G,0.92
20,U15G U29C,1.05
21,C18U A64U,0.19
22,U15C G144U,1.61
23,U15C C68U,0.19
24,U15C G54A,0.74

row,Variant,self-cleavage
1,C16A U104A,0.47
2,U15C A107U,1.2
3,C17U A59G,0.17
4,U15C U73A,1.68
5,U15C U73C,1.8
6,C17A A67G,0.56
7,U15A C95U,0.41
8,U15A C133U,1.31
9,U15C G40A,0.3
10,U15C C19U,1.08
11,U15C C17A,1.28
12,C16U A140U,1.78
13,C17U A121G,1.53
14,U15C A50U,1
15,U14C U132C,1.43
16,U14C U132A,0.87
17,U15C G86A,0.06
18,U14G A69G,0.42
19,C16A A138G,1.65
20,U15A C84U,0.08
21,U15C G58A,0.11
22,C18U A43G,2.02
23,U15C A121G,1.34
24,U15C A121U,1.79

row,Variant,self-cleavage
1,U15C G106A,1.26
2,U15C G106C,1.03
3,C17A A43G,0.89
4,U15C C145U,1.47
5,C17U A67G,0.34
6,U15C G34A,0.78
7,U15C G34U,1.65
8,U15A U62A,0.04
9,C17A U46C,1.42
10,C17U A22U,1.21
11,U15A U108C,1.49
12,C18U A42C,0.74
13,U15A U39A,0.85
14,U15C A129U,1.06
15,U15C C116U,0.62
16,U14G U52A,1.08
17,C18A U73G,1.01
18,U15A A59G,0.08
19,U15A C19A,0.79
20,U15A C19U,0.93
21,C16A U47G,0.75
22,U15C G93A,0.07

# Reference: the RNAGym collection of RNA variant scans (doi:10.7554/elife.90254)
